Laboratory results as given in publication PMC3258126.

Test system: rP20 WT (Bamboo mosaic virus satellite RNA (satBaMV, clone pBSF4))
Test: EMSA

In the case of WT satBaMV RNA transcript, the Kd is reported as 31 nM.
